Paper PMC9937993, “Structures of the NDP-pyranose mutase belonging to glycosyltransferase family 75 reveal residues important for Mn^2+ coordination and substrate binding” (The Journal of Biological Chemistry, 2023)

Columns and labels:
[1] = target: MtdL E341K mutant (Marinactinospora thermotolerans SCSIO 00652); assay: SEC-MALS; static light scattering (SLC): Superdex 200 Increase column on an Akta Pure L system, on-line eight-angle static light scattering detector (DAWN HELEOS II) and differential refractive index detector; molar masses by ASTRA 7.0.1
[2] = target: MtdL wildtype, His6-tagged (Marinactinospora thermotolerans SCSIO 00652); assay: as above

Substance | stoichiometry N [1] | stoichiometry N [2]
MtdL E341K mutant (enzyme) | 2 | 
MtdL wildtype, His6-tagged (enzyme) |  | 4
